Results as given in patent US20090169570A1 (BIOTEST, published 2009).
Where “and” joins values, the source holds several entries; their conditions need not be identical. Equal values may be shown once.

T1: CD138 expressed on the cell surface (OPM-2, MOLP-8 cells) (human, UniProt P18827 23-310)
T1 sequence (looked up): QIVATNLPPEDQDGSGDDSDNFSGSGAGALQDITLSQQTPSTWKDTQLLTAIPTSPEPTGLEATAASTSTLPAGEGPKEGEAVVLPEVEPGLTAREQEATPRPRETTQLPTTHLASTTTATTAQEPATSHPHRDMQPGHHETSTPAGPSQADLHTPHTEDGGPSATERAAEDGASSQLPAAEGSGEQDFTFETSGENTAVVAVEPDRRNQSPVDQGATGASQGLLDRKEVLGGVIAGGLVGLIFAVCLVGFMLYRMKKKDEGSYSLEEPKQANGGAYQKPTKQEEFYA

T2: Soluble CD138 antigen from U-266 cell culture supernatant, biotinylated (human, UniProt P18827 23-245, limits assumed, biotinylated on primary amino groups with Sulfo-NHS-LC-Biotin)
T2 construct: This is the soluble form in the supernatant of the human MM cell line U-266; also called bCD138; biotinylated CD138
T2 sequence (looked up): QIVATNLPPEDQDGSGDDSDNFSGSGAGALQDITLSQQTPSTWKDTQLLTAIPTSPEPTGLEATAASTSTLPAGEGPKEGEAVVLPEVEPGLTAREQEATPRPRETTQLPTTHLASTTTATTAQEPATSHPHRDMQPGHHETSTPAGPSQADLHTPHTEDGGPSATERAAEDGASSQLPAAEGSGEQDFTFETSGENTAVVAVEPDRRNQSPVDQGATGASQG

B1: nBT062-SPDB-DM4 (antibody, human IgG4, kappa, V domains shown)
VH: QVQLQQSGSELMMPGASVKISCKATGYTFSNYWIEWVKQRPGHGLEWIGEILPGTGRTIYNEKFKGKATFTADISSNTVQMQLSSLTSEDSAVYYCARRDYYGNFYYAMDYWGQGTSVTVSS
VL: DIQMTQSTSSLSASLGDRVTISCSASQGINNYLNWYQQKPDGTVELLIYYTSTLQSGVPSRFSGSGSGTDYSLTISNLEPEDIGTYYCQQYSKLPRTFGGGTKLEIKR
modifications: maytansinoid DM4 attached via SPDB (disulfide) linker; attachment residues and chain not stated
B2: nBT062 (antibody, human IgG4, kappa, V domains shown)
VH: B1 VH
VL: B1 VL
notes: also called cB-B4; chimeric B-B4
B3: B-B4-SPP-DM1 (antibody, V domains shown)
VH: B1 VH
VL: DIQMTQSTSSLSASLGDRVTISCSASQGINNYLNWYQQKPDGTVELLIYYTSTLQSGVPSRFSGSGSGTDYSLTISNLEPEDIGTYYCQQYSKLPRTFGGGTKLEIK
modifications: maytansinoid DM1 attached via SPP (disulfide) linker; attachment residues and chain not stated
notes: the variable domain limits are inferred as for B-B4
B4: nBT062-SPP-DM1 (antibody, human IgG4, kappa, V domains shown)
VH: B1 VH
VL: B1 VL
modifications: maytansinoid DM1 attached via SPP (disulfide) linker; attachment residues and chain not stated; average of 3.5 DM1 per antibody stated for nBT062-DM1
B5: nBT062-SMCC-DM1 (antibody, human IgG4, kappa, V domains shown)
VH: B1 VH
VL: B1 VL
modifications: maytansinoid DM1 attached via SMCC (non-cleavable) linker; attachment residues and chain not stated; average of 3.5 DM1 per antibody stated for nBT062-DM1

Assays:
[1] = molecular target: T1, CD138 expressed on the cell surface …; experiment: cell-based or functional assay
[2] = molecular target: T1, CD138 expressed on the cell surface …; experiment: FACS on CD138+ OPM-2 cells, fluorescence-labeled secondary antibody, mean fluorescence against concentration
Description: The mean fluorescence measured in these experiments was plotted against the antibody concentration.
In FIG. 6, the mean fluorescences as measure for the amount of cell bound antibody is plotted against different antibody or conjugate concentrations.

[3] = molecular target: T2, Soluble CD138 antigen from U-266 cell …; experiment: SPR (BIACORE C), biotinylated soluble CD138 on streptavidin chip, conjugate as analyte at 3.13-100 nM
Experimental: (§1) The unbound biotinylation reagent was removed using protein desalting columns. Immobilization of bCD138 The sensorchip (SENSOR CHIP SA, BIACORE AB) used in the BIACORE assay is designed to bind biotinylated molecules for interaction analysis in BIACORE systems. The surface consists of a carboxymethylated dextran matrix pre-immobilized with streptavidin and ready for high-affinity capture of biotinylated ligands. Immobilization of bCD138 was performed on SENSOR CHIP SA using a flow rate of 10 μL/min by manual injection. The chip surface was conditioned with three consecutive 1-minute injections of 1 M NaCl in 50 mM NaOH.
(§2) The software of BIACORE C uses pre-defined masks, so called “Wizards” for different experiments where only certain settings can be changed. As the BIACORE C was originally developed to measure concentrations, there is no wizard designed to carry out affinity measurements. […] With this wizard, two flow cells were measured and the dissociation phase was set to 90 s by performing the “Regeneration 1” with BIACORE running buffer. […] The dissociation equilibrium constants were determined by calculating the rate constants ka and kd. Afterwards, the KD-values of the analytes were calculated by the quotient of kd and ka with the BIAevaluation software.

[4] = molecular target: T2, Soluble CD138 antigen from U-266 cell …; experiment: SPR (BIACORE C), mean of three independent experiments, biotinylated soluble CD138 on streptavidin chip
Experimental: as §1, §2

Row | Binder | EC50 (read off the curve) [2] [nM] | also measured
1 | B1 | – | IC50 (read off the curve); surviving fraction of MOLP-8 cells (WST viability assay, 5 days), curve 'w/o blocking' [1]: ~0.08 nM
2 | B2 | ~1 | –
3 | B3 | – | Kd [3]: 2.6 nM and 2.7 nM; Kd [4]: 2.6 nM
4 | B4 | ~1 | –
5 | B5 | ~1 | –
